These results are taken from patent US20230042176.

Series [1] concerns the target Flag-tagged BK (Flag-BK), overexpressed in HEK293 cells.
Series [2] deals with BK, endogenous, in primary mouse cortical neurons, Q08460.
BK, endogenous, in primary mouse cortical neurons, Q08460, sequence (Q08460 whole entry): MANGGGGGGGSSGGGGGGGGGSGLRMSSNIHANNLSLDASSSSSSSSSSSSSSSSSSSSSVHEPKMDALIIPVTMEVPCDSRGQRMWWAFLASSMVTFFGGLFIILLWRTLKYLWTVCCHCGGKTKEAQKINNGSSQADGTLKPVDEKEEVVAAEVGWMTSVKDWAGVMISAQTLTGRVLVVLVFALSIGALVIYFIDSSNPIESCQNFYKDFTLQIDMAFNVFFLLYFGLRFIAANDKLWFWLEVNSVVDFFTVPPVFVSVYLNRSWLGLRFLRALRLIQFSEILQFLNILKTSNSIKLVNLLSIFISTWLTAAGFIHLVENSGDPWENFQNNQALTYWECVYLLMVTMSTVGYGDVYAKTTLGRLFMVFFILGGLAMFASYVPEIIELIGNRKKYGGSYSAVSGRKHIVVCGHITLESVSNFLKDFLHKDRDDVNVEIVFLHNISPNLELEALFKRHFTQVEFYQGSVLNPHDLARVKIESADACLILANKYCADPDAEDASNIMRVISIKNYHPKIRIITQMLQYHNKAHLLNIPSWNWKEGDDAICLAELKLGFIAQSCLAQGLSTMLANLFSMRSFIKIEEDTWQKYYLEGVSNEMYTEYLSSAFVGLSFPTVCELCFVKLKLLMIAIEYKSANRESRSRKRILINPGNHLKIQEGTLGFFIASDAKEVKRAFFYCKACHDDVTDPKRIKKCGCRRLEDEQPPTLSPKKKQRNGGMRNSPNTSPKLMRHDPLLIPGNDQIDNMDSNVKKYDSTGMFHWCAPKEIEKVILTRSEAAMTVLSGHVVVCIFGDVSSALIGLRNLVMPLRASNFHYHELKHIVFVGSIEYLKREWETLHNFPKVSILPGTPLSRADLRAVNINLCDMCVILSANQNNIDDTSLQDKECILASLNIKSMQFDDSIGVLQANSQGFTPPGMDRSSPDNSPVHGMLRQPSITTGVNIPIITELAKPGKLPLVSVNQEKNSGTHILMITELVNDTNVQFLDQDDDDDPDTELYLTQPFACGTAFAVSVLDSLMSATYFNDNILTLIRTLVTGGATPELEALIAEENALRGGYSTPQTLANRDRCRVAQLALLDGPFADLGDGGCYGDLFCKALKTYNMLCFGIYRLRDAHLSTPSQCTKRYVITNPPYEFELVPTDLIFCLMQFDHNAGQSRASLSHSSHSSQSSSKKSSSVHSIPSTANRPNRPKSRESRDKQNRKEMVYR

B1: UBE3A, recombinant, as used in the in vitro ubiquitination assay (ubiquitination kit K-230, Boston Biochem) (protein)
chain: MEKLHQCYWKSGEPQSDDIEASRMKRAAAKHLIERYYHQLTEGCGNEACTNEFCASCPTFLRMDNNAAAIKALELYKINAKLCDPHPSKKGASSAYLENSKGAPNNSCSEIKMNKKGARIDFKDVTYLTEEKVYEILELCREREDYSPLIRVIGRVFSSAEALVQSFRKVKQHTKEELKSLQAKDEDKDEDEKEKAACSAAAMEEDSEASSSRIGDSSQGDNNLQKLGPDDVSVDIDAIRRVYTRLLSNEKIETAFLNALVYLSPNVECDLTYHNVYSRDPNYLNLFIIVMENRNLHSPEYLEMALPLFCKAMSKLPLAAQGKLIRLWSKYNADQIRRMMETFQQLITYKVISNEFNSRNLVNDDDAIVAASKCLKMVYYANVVGGEVDTNHNEEDDEEPIPESSELTLQELLGEERRNKKGPRVDPLETELGVKTLDCRKPLIPFEEFINEPLNEVLEMDKDYTFFKVETENKFSFMTCPFILNAVTKNLGLYYDNRIRMYSERRITVLYSLVQGQQLNPYLRLKVRRDHIIDDALVRLEMIAMENPADLKKQLYVEFEGEQGVDEGGVSKEFFQLVVEEIFNPDIGMFTYDESTKLFWFNPSSFETEGQFTLIGIVLGLAIYNNCILDVHFPMVVYRKLMGKKGTFRDLGDSHPVLYQSLKDLLEYEGNVEDDMMITFQISQTDLFGNPMMYDLKENGDKIPITNENRKEFVNLYSDYILNKSVEKQFKAFRRGFHMVTNESPLKYLFRPEEIELLICGSRNLDFQALEETTEYDGGYTRDSVLIREFWEIVHSFTDEQKRLFLQFTTGTDRAPVGGLGKLKMIIAKNGPDTERLPTSHTCFNVLLLPEYSSKEKLKERLLKAITYAKGFGML
In the case of B1, the “in vitro ubiquitination assay (E1 Ube1, E2 UbcH5c, HA-Ub)” value in series [1] was “BK ubiquitination by UBE3A was further confirmed by an in vitro ubiquitination assay using recombinant proteins (FIG. 11C)”.

B2: Ube3a, endogenous, in primary mouse cortical neurons (WT against Ube3a m-/p+ mice) (protein)
chain: MATACKRSPGESQSEDIEASRMKRAAAKHLIERYYHQLTEGCGNEACTNEFCASCPTFLRMDNNAAAIKALELYKINAKLCDPHPSKKGASSAYLENSKGASNNSEIKMNKKEGKDFKDVIYLTEEKVYEIYEFCRESEDYSPLIRVIGRIFSSAEALVLSFRKVKQHTKEELKSLQEKDEDKDEDEKEKAACSAAAMEEDSEASSSRMGDSSQGDNNVQKLGPDDVTVDIDAIRRVYSSLLANEKLETAFLNALVYLSPNVECDLTYHNVYTRDPNYLNLFIIVMENSNLHSPEYLEMALPLFCKAMCKLPLEAQGKLIRLWSKYSADQIRRMMETFQQLITYKVISNEFNSRNLVNDDDAIVAASKCLKMVYYANVVGGDVDTNHNEEDDEEPIPESSELTLQELLGDERRNKKGPRVDPLETELGVKTLDCRKPLISFEEFINEPLNDVLEMDKDYTFFKVETENKFSFMTCPFILNAVTKNLGLYYDNRIRMYSERRITVLYSLVQGQQLNPYLRLKVRRDHIIDDALVRLEMIAMENPADLKKQLYVEFEGEQGVDEGGVSKEFFQLVVEEIFNPDIGMFTYDEATKLFWFNPSSFETEGQFTLIGIVLGLAIYNNCILDVHFPMVVYRKLMGKKGTFRDLGDSHPVLYQSLKDLLEYEGSVEDDMMITFQISQTDLFGNPMMYDLKENGDKIPITNENRKEFVNLYSDYILNKSVEKQFKAFRRGFHMVTNESPLKYLFRPEEIELLICGSRNLDFQALEETTEYDGGYTRESVVIREFWEIVHSFTDEQKRLFLQFTTGTDRAPVGGLGKLKMIIAKNGPDTERLPTSHTCFNVLLLPEYSSKEKLKERLLKAITYAKGFGML
Regarding B2, in series [2], the “endogenous BK ubiquitination (BK IP, ubiquitin antibody blot, primary mouse cortical neurons)” value is “BK ubiquitination by UBE3A was further confirmed ... by assessing endogenous BK ubiquitination using mouse cortical neurons derived from either WT or Ube3a^m-/p+ mice (FIGS. 11D-11E)”.
